Experimental findings from the Human Domainome abundance scans (Beltran et al. 2025) are described below.

± gives the uncertainty stated by the source.

B1: TGF-beta-activated kinase 1 and MAP3K7-binding protein 3, residues 12 to 50; numbered along this chain, Q8N5C8 (parent)
chain: VLHDLRQRFPEIPEGVVSQCMLQNNNNLEACCRALSQES

The variants in the data set derive from B1. Put plainly: abundance fitness (aPCA) (normalised: wild type 0, dead -1); higher = more abundant; growth selection in yeast, the domain comes from the species named. The following applies: Homo sapiens.
In the case of VLHDLRQRFPEIPEGVVSQCMLQNNNNLEACCRALSYES, the abundance fitness was -0.345 ± 0.091. For VLHDLRQRFPEIPEGVVSQCMLQNNNNLEACCRALSLES the value was 0.041 ± 0.039; for VLHDLRQRFPEIPEGVVSQCMLQNNNNLEACCRALSNES, 0.151 ± 0.1.

Take VLHDLRQRFPEIPEGVVSQCMLQNNNNLEACCRALSMES: the abundance fitness was 0.043 ± 0.045. The figure for VLHDLRQRFPEIPEGVVSQCMLQNNNNLEACCRALSTES is -0.05 ± 0.047; for VLHDLRQRFPEIPEGVVSQCMLQNNNNLEACCRALSSES it is -0.014 ± 0.041; for VLHDLRQRFPEIPEGVVSQCMLQNNNNLEACCRALSHES it is -0.162 ± 0.073. The figure for VLHDLRQRFPEIPEGVVSQCMLQNNNNLEACCRALSDES is -0.042 ± 0.066. For VLHDLRQRFPEIPEGVVSQCMLQNNNNLEACCRALSGES the value was 0.009 ± 0.035; for VLHDLRQRFPEIPEGVVSQCMLQNNNNLEACCRALSVES, -0.122 ± 0.038. As for VLHDLRQRFPEIPEGVVSQCMLQNNNNLEACCRALSAES, the abundance fitness is 0.084 ± 0.038. VLHDLRQRFPEIPEGVVSQCMLQNNNNLEACCRALSCES: the abundance fitness was -0.129 ± 0.071. On to VLHDLRQRFPEIPEGVVSQCMLQNNNNLEACCRALSWES, for which the abundance fitness is -0.372 ± 0.048. On to VLHDLRQRFPEIPEGVVSQCMLQNNNNLEACCRALSRES, for which the abundance fitness was -0.003 ± 0.034.

Turning to VLHDLRQRFPEIPEGVVSQCMLQNNNNLEACCRALSEES, the abundance fitness was 0.102 ± 0.035. For VLHDLRQRFPEIPEGVVSQCMLQNNNNLEACCRALSQEP the value was -0.041 ± 0.064; for VLHDLRQRFPEIPEGVVSQCMLQNNNNLEACCRALSQEA, -0.255 ± 0.068. For VLHDLRQRFPEIPEGVVSQCMLQNNNNLEACCRALSQEE the value was -0.104 ± 0.14; for VLHDLRQRFPEIPEGVVSQCMLQNNNNLEACCRALSQEW, -0.137 ± 0.072. VLHDLRQRFPEIPEGVVSQCMLQNNNNLEACCRALSQEY: the abundance fitness was -0.002 ± 0.06. Take VLHDLRQRFPEIPEGVVSQCMLQNNNNLEACCRALSQEG: the abundance fitness amounted to 0.001 ± 0.057.

For VLHDLRQRFPEIPEGVVSQCMLQNNNNLEACCRALSQEC, the abundance fitness is -0.083 ± 0.07. For VLHDLRQRFPEIPEGVVSQCMLQNNNNLEACCRALSQEK the value was 0.052 ± 0.067; for VLHDLRQRFPEIPEGVVSQCMLQNNNNLEACCRALSQEQ, 0.039 ± 0.065; for VLHDLRQRFPEIPEGVVSQCMLQNNNNLEACCRALSQET, 0.249 ± 0.12. VLHDLRQRFPEIPEGVVSQCMLQNNNNLEACCRALSQEL: the abundance fitness is -0.045 ± 0.067. For VLHDLRQRFPEIPEGVVSQCMLQNNNNLEACCRALSQEF the value was -0.213 ± 0.14; for VLHDLRQRFPEIPEGVVSQCMLQNNNNLEACCRALSQER, 0.121 ± 0.05; for VLHDLRQRFPEIPEGVVSQCMLQNNNNLEACCRALSQEM, -0.077 ± 0.069.

In the case of VLHDLRQRFPEIPEGVVSQCMLQNNNNLEACCRALWQES, the abundance fitness is -0.571 ± 0.08.

VLHDLRQRFPEIPEGVVSQCMLQNNNNLEACCRALMQES: the abundance fitness was -0.095 ± 0.071. Take VLHDLRQRFPEIPEGVVSQCMLQNNNNLEACCRALVQES: the abundance fitness is -0.365 ± 0.045. For VLHDLRQRFPEIPEGVVSQCMLQNNNNLEACCRALLQES the value was -0.186 ± 0.044; for VLHDLRQRFPEIPEGVVSQCMLQNNNNLEACCRALYQES, -0.489 ± 0.1. VLHDLRQRFPEIPEGVVSQCMLQNNNNLEACCRALRQES: the abundance fitness is -0.031 ± 0.042. For VLHDLRQRFPEIPEGVVSQCMLQNNNNLEACCRALSQSS the value was -0.046 ± 0.044; for VLHDLRQRFPEIPEGVVSQCMLQNNNNLEACCRALSQGS, -0.069 ± 0.036.

As to VLHDLRQRFPEIPEGVVSQCMLQNNNNLEACCRALSQWS, the abundance fitness turned out to be 0.264 ± 0.04. In the case of VLHDLRQRFPEIPEGVVSQCMLQNNNNLEACCRALSQPS, the abundance fitness is -0.029 ± 0.057.

For VLHDLRQRFPEIPEGVVSQCMLQNNNNLEACCRALSQFS, the abundance fitness was 0.109 ± 0.1. For VLHDLRQRFPEIPEGVVSQCMLQNNNNLEACCRALSQQS the value was 0.145 ± 0.055; for VLHDLRQRFPEIPEGVVSQCMLQNNNNLEACCRALSQHS, 0.11 ± 0.054; for VLHDLRQRFPEIPEGVVSQCMLQNNNNLEACCRALSQVS, -0.073 ± 0.042. The figure for VLHDLRQRFPEIPEGVVSQCMLQNNNNLEACCRALSQCS is 0.058 ± 0.068; for VLHDLRQRFPEIPEGVVSQCMLQNNNNLEACCRALSQLS it is 0.14 ± 0.065; for VLHDLRQRFPEIPEGVVSQCMLQNNNNLEACCRALSQKS it is 0.014 ± 0.046. The figure for VLHDLRQRFPEIPEGVVSQCMLQNNNNLEACCRALSQTS is -0.118 ± 0.058; for VLHDLRQRFPEIPEGVVSQCMLQNNNNLEACCRALSQMS it is 0.224 ± 0.061; for VLHDLRQRFPEIPEGVVSQCMLQNNNNLEACCRALSQRS it is 0.1 ± 0.047. For the variant VLHDLRQRFPEIPEGVVSQCMLQNNNNLEACCRALSQDS, the abundance fitness is -0.045 ± 0.078. Regarding VLHDLRQRFPEIPEGVVSQCMLQNNNNLEACCRALSQYS, the abundance fitness was found to be 0.093 ± 0.15.
